Data published in publication PMC8096239, “Nse5/6 is a negative regulator of the ATPase activity of the Smc5/6 complex”.

Target: Smc5/6 holo-complex (S5-S6-N2/N1-N3-N4);Nse5/6 (Saccharomyces cerevisiae;Saccharomyces …, UniProt Q08204;Q12749;P38632;Q07913;Q05541;P43124;Q03718;P40026 …, |)
Assay: EMSA; purified super-complex containing Nse5/6; no significant perturbation vs holo-complex; EMSA: 200 nM hairpin, 20 mM HEPES-NaOH pH 7.5, 150 mM NaCl, 0.5 mM TCEP, 30 min at 4 C; 0.8% TBE-agarose gel, 50 V, 3 h, 4 C
Conditions: protein: recombinant;recombinant, tags: Smc5-FLAG, Smc6-AVI-HIS, HA-Nse2, HIS-TEV-Nse1, Nse3 untagged, Nse4-HALO-Myc;Nse5-C.tag (GAAEPEA), HIS-3C-Nse6, copies: 1;1;1;1;1;1;1;1, label: fluorescein on position 5 of thymine, 6-carbon spacer, 48 bp stem, 4 nt loop AATA, blunt end

B1: oligonucleotide C, self-annealed dsDNA hairpin (structured_DNA)
DNA: ATCAGTACTTGTCAACACGAGCAGCCCGTATATTCTCCTACAGCACTAAATATAGTGCTGTAGGAGAATATACGGGCTGCTCGTGTTGACAAGTACTGAT
modifications: internal fluorescein-dT (iFT), between S3 and S4 (position 51, in loop)
- binding result: binds
